Test [1] addresses Human Id1: Histidine (human) (UniProt P41134). Description: sandwich ELISA, 5-3-coated wells, human Id1:His 1.0 ng/ml, detected with rabbit polyclonal B-5133-HRP. For orientation: In an ELISA, binding on a coated surface is turned into a signal by an enzyme label.
Test [2] has the same target. Description: ELISA, coated antigen; relative to mouse Id1.
The target in test [3] is T1, glutathione S-transferase (GST) (UniProt P08515 1-218 = GST).
T1 construct: Coated on wells as control for the fusion partner of the immunogen
Description: ELISA, coated antigen, Ab 0.10 ug/ml. How it is done:
(§1) Incubate plates at 2-8° C. overnight (16-24 hours). [0145] 11. Shake off the BSA solution. [0146] 12. Dispense 250 μL of 2.5% sucrose solution into each well. [0147] 13. Incubate plates at 2-8° C. for 4 hours. [0148] 14. Shake off sucrose solution. [0149] 15. Dry in vacuum at room temperature overnight. Screening Method [0150] 1. Dispense 100 μL of antibody diluent, diluted rabbit polyclonal anti-Id1 into appropriate wells. […] 2. Incubate at room temperature with mechanical shaking at 750 rpm for 90 minutes. [0152] 3. Remove the incubation mixture by flicking plate content into an appropriate waste container, followed by rinsing the wells 5 times with distilled water. […] 4. Strike the wells sharply onto absorbent paper or paper towels to remove all residual water droplets. [0154] 5. Dispense 100 μL of Goat Anti-Rabbit IgG-HRP Conjugate Reagent into each well. Gently mix for 5 seconds. [0155] 6. Incubate at room temperature with mechanical shaking at 750 rpm for 90 minutes. […] 7. Repeat procedures 3 and 4. [0157] 8. Dispense 100 μL of TMB Reagent into each well. Gently mix for 5 seconds. [0158] 9. Incubate at room temperature with mechanical shaking at 750 rpm for 20 minutes. [0159] 10. Add 100 μL of Stop Solution (1N HCl) into each well. [0160] 11. Gently mix for 10 seconds to ensure a complete mixing. […] 12. Read optical density (absorbance) at 450 nm. Results from this assay were used to select the rabbit sera with the highest antibodies titer that selectively reacts with mouse Id1 or human Id1 or both.
(§2) A comparison was carried out between the reactivity of the rabbit monoclonal anti-mouse Id1, clone #BCH-1/#37-2, of this invention and the mouse monoclonal anti-mouse/human Id1 from BD Pharmingen with the following antigens prepared in Example 5: mouse Id1:His, human Id1:His, human Id2:His, human Id3:His, and GST. These antigens and protein were used to coat the wells.
(§3) Materials and methods were those described in Example 9 except (a) Pharmingen's mouse monoclonal anti-mouse Id1 was used in addition to the rabbit monoclonal anti-mouse Id1 (Example 10), and (b) goat anti-mouse IgG-HRP conjugate was used to process the wells treated with the Pharmingen monoclonal antibody and polyclonal goat anti-rabbit IgG-HRP conjugate was used to process wells treated with rabbit monoclonal anti-mouse Id1.

The target in test [4] is T2, Mouse Id1: Histidine (mouse, UniProt P20067-2 1-148).
T2 construct: E. coli fusion protein (vector pGW07); also called m-Id1-His; not shown: His-tag
T2 sequence: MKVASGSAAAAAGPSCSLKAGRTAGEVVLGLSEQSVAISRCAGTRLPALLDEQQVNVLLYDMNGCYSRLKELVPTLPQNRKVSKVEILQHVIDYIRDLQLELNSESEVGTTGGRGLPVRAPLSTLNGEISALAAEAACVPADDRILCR
Description: ELISA, coated antigen, Ab 0.10 ug/ml. How it is done:
as §1, §2, §3

The target of test [5] is T3, Human Id2: Histidine (human, UniProt Q02363 1-134, limits assumed).
T3 construct: E. coli fusion protein (vector pGW07); also called h-Id2: His; not shown: His-tag
T3 sequence (looked up): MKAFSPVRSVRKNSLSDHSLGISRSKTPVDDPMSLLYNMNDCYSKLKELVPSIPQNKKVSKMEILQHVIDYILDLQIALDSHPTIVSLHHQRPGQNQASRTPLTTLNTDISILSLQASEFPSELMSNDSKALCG
Description: ELISA, coated antigen, Ab 0.10 ug/ml. How it is done: as §1, §2, §3

The target in test [6] is T4, Human Id3: Histidine (human, UniProt Q02535 1-119, limits assumed).
T4 construct: E. coli fusion protein (vector pGW07); also called h-Id3: His; not shown: His-tag
T4 sequence (looked up): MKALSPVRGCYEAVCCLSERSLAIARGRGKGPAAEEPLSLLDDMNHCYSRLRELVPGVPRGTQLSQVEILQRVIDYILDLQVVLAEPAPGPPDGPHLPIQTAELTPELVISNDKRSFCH
Description: ELISA, coated antigen, Ab 0.10 ug/ml. How it is done:
as §1, §2, §3

Test [7] addresses T5, mouse Id1 protein (mouse, UniProt P20067-2 1-148).
T5 construct: No tag stated; Western blots: expressed in transfected HeLa cells (whole cell extract on SDS gel); IHC: endogenous in mouse mammary tumor tissue
T5 sequence: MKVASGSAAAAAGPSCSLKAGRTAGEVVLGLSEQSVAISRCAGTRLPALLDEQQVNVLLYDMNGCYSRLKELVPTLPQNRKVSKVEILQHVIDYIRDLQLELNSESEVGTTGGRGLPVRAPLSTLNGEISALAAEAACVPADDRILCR
Description: SPR (BIACORE 2000), antibody immobilized on CM5 chip, Id-1 as analyte, 1:1 Langmuir model. How it is done:
(§4) Antibodies were immobilized on CM5 sensor chips. All SPR (surface plasmon resonance) assays were carried out in a BIACORE 2000 instrument. A mouse monoclonal antibody was used as reference labeled at the 2nd channel (Fc2) of the chip. BCH-1#37-2 was immobilized on the 4th (Fc4) channel. Final conjugation of antibodies on chip surface was 1878 RU for BCH-1#37-2. Mouse Id-1 and human Id-1 were applied as mobile analytes. The binding assays were carried out in HBS-P buffer (10 mM HEPES, pH 7.4, containing 150 mM sodium chloride, 0.005% surfactant P-20 detergent and 0.12% glycerol). Kinetics were determined with 8 different analyte concentrations ranging from […] to 573 nM. For analyses, 125 μl of analyte were injected (Kinject protocol) at 30 μl/min and the dissociation lasted for 240 seconds at the same flow rate. The surface was regenerated by washing with 50 μl solution of 100 mM glycine and 100 mM of HCl, pH 1.81, at 60 μl/min and the extra cleaning protocol was followed. The kinetic analyses of sensograms were based on the Langmuir (1:1) binding model. Both association rate constant and dissociation rate constants for the interaction of mouse Id-1 and human Id-1 with the immobilized antibodies were determined from the analysis of sensograms using the Biaevaluation software, version 3.0. […]
In general terms: Surface plasmon resonance follows binding to a sensor surface in real time, without labels.

The target in test [8] is T6, human Id1 protein (human, UniProt P41134 1-155).
T6 construct: No tag stated; Western blots: endogenous in HeLa and other human cancer cell extracts; IHC: endogenous in human mammary tumor tissue
T6 sequence: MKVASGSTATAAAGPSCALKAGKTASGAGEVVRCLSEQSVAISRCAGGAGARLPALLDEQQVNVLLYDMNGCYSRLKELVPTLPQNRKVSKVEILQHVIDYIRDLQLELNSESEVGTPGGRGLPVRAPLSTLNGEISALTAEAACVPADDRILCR
The test is described as above. How it is done:
as §4

T1 sequence (P08515 whole entry, the tested form may be a part): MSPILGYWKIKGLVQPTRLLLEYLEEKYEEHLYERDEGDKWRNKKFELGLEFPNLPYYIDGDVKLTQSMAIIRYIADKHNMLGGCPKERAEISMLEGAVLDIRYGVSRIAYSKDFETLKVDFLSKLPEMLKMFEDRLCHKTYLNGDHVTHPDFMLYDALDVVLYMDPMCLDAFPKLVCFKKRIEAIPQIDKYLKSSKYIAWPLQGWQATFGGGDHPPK

Take “rabbit monoclonal anti-human Id1, clone #BCH-2/#5-3 (antibody)”: the A450 in test [1] came to 0.124 A450.

B1: rabbit monoclonal anti-mouse Id1, clone #BCH-1/#37-2 (antibody, V domains shown)
VH: QSVEESGGRLVTPGTPLTLTCKVSGFDINSYAMDWFRQAPGKGLEWIGMMSTRGNTYYTSWAKGRFTISKTSSTTVDLKMTSLTTEDTATYFCARGGLWGPGTLVTVSS
VL: RVLTQTASPVSAAVGGTVTINCQASQSVYNGNRLGWYQLKPGQSPKELIHDASTLASGVPSRFRGSGSGTQFTLTINDVQCDDAATYYCVGSYACSTGDCNVFGGGTEVVVK
notes: Rabbit IgG from hybridoma, Protein G purified; also called m Id1 MoAb 37-2; Rabbit Monoclonal Anti-Mouse Id1 (#37-2)
On to B1, for which the Cross-reactivity (%) in test [2] is less than 1%. In addition, the A450 in test [3] is 0.047 A450; in test [4] it was 1.29 A450; in test [5] it was 0.049 A450; in test [6], 0.048 A450. The Ka in test [7] came out at 2.9e+11 M⁻¹; in test [8] it was 2.9e+09 M⁻¹.

These data come from patent publication US20060286609A1 (BIOCHECK, published 2006).
